Test [1] concerns the target PD-1 on PD-1 reporter Jurkat cells (human, UniProt Q15116 25-288). In words: cell-based or functional assay.
The next test has as its target T1, human DSG-3 (human, UniProt P32926 50-615, limits assumed).
T1 construct: Soluble analyte (Octet) and plate coat (ELISA); also called hDSG-3
T1 sequence (looked up): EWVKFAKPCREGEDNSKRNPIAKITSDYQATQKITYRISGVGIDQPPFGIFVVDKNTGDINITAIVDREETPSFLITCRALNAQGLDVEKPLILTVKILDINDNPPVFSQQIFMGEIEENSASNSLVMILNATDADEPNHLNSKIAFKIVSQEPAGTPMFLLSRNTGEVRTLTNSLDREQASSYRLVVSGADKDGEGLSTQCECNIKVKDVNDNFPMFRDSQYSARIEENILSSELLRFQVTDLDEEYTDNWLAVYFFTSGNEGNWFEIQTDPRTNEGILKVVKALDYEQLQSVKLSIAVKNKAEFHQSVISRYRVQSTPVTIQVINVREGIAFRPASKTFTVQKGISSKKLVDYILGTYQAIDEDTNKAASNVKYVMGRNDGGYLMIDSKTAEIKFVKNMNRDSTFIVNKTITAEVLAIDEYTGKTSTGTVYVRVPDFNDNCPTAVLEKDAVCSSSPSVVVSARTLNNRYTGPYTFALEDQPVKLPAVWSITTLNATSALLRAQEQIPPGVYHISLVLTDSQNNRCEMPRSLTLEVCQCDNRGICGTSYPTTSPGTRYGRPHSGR
In words: BLI (Octet), test article captured on anti-human Fc biosensors, human DSG-3 as analyte, 1:1 global fit.

The target of another test is T2, mouse PD-1 (mouse, UniProt Q02242 25-167, limits assumed).
T2 sequence (looked up): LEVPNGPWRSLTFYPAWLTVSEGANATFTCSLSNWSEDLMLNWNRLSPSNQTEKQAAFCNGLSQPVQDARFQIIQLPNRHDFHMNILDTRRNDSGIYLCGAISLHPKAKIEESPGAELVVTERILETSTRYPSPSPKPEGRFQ
In words: no binding assay described; said in the vitiligo mouse model example.

From patent publication US20240262905A1 (PANDION OPERATIONS, published 2024) come the findings set out here.

PD-1 on PD-1 reporter Jurkat cells, sequence (Q15116 25-288): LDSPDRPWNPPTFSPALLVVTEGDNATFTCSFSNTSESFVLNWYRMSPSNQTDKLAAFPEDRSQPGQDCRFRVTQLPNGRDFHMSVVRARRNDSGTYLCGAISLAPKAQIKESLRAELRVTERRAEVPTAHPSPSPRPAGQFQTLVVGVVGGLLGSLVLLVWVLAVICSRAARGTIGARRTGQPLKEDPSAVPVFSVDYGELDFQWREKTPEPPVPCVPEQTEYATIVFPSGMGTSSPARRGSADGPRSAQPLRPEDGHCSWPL
Method for human DSG-3: Anti-human Fc biosensors were equilibrated in assay buffer (PBS, pH 7.4 with 1% BSA, and 0.05% Tween-20) for 30 minutes before the experiment was set-up. Test articles were diluted to 5 ug/mL in assay buffer. A two-fold, seven-point dilution of human DSG-3 (starting at 300 nM as the highest concentration) was made. Test articles were captured using anti-human Fc biosensors for 180 s. Biosensors loaded with test articles were equilibrated in assay buffer for 120 s; association was performed for 180 seconds and dissociation was performed for 300 s. Kinetic parameters (kon and kdis) and dissociation constant (KD) were calculated from a 1:1 global fit model using the data analysis software of the Octet96 RED software version 10.

B1: PD1DSGAB9 (bispecific antibody)
heavy: EVQLLESGGGLVQPGGSLRLSCAASGFTFSNSDMSWVRQAPGKGLEWVSGITISGGSTYYADSVKGRFTISRDNSKNTLYLQMNSLRAEDTAVYYCARGRGGSGWLDYWGQGTLVTVSSASTKGPSVFPLAPSSKSTSGGTAALGCLVKDYFPEPVTVSWNSGALTSGVHTFPAVLQSSGLYSLSSVVTVPSSSLGTQTYICNVNHKPSNTKVDKKVEPKSCDKTHTCPPCPAPEAAGAPSVFLFPPKPKDTLMISRTPEVTCVVVDVSHEDPEVKFNWYVDGVEVHNAKTKPREEQYNSTYRVVSVLTVLHQDWLNGKEYKCKVSNKALPAPIEKTISKAKGQPREPQVYTLPPSREEMTKNQVSLTCLVKGFYPSDIAVEWESNGQPENNYKTTPPVLDSDGSFFLYSKLTVDKSRWQQGNVFSCSVMHEALHNHYTQKSLSLSPGGGGGSGGGGSGGGGSQSVLTQPPSVSGTPGQRVTISCSGSSSHIGSNYVYWYQQLPGTAPKILIYSNDQRPAGVPDRFSASKSGTSASLAISGLRSEDEADYYCAAWDDGQGGVFGGGTKLTVLGGGGSGGGGSGGGGSGGGGSQVQLQESGPGPVKPSGTLSLTCGVSGGSISSNHWWTWVRQPPGKGLEWIGEIYHNGSTFLNPSLKSRVTISVDKSNNQFSLKLTSVTAADTAVYYCARGWHRTGFRGYPSHWYFDLWGRGTLVSVSS
light: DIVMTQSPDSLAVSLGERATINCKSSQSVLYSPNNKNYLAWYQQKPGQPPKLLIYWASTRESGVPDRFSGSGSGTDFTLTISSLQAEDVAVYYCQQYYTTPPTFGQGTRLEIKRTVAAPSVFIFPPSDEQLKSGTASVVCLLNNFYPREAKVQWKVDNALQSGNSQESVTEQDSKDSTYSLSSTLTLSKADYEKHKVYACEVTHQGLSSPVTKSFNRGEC
notes: also called PD1DS91; copies: 2 + 2
Consider B1, for which, in test [1], the “SHP-2 recruitment in PD-1 reporter Jurkat cells (test article on anti-human IgG coated plate), EC50 at 2 hours” value was found to be 21.2 nM and the “SHP-2 recruitment in PD-1 reporter Jurkat cells (test article on anti-human IgG coated plate), EC50 at 24 hours” value was 16.6 nM. In the test with human DSG-3, this molecule returned a Kd of 29 nM and a koff of 0.000757 s⁻¹. In the test with mouse PD-1, the binding result is “no binding”.
